Data set [1] can be described thus: CHX chase, FLAG-ESRRB immunoblot, mESCs. To be noted: glycan lost; control: DMSO. A general note: Immunoblotting shows a protein as a band on a membrane.
A short description of data set [2]: ESRRB-responsive element luciferase reporter, HEK293T. To be noted: glycan lost.
Data set [3] in a line: CHX 12 h, immunoblot, HEK293T. The following applies: glycan lost; control: EGFP-ESRRB wild type.
The nature of data set [4]: CHX chase up to 12 h, immunoblot, mESCs. To be noted: glycan lost; control: FLAG-ESRRB wild type.
Data set [5] is described as follows: GFP immunoprecipitation, ubiquitin blot, HEK293T. To be noted: glycan lost; control: wild type.

B1: ESRRB: Ac45SGlcNAc (OGT inhibitor) (protein)
parent chain: MSSEDRHLGSSCGSFIKTEPSSPSSGIDALSHHSPSGSSDASGGFGIALSTHANGLDSPPMFAGAGLGGNPCRKSYEDCTSGIMEDSAIKCEYMLNAIPKRLCLVCGDIASGYHYGVASCEACKAFFKRTIQGNIEYNCPATNECEITKRRRKSCQACRFMKCLKVGMLKEGVRLDRVRGGRQKYKRRLDSENSPYLNLPISPPAKKPLTKIVSNLLGVEQDKLYAMPPNDIPEGDIKALTTLCELADRELVFLINWAKHIPGFPSLTLGDQMSLLQSAWMEILILGIVYRSLPYDDKLAYAEDYIMDEEHSRLVGLLDLYRAILQLVRRYKKLKVEKEEFMILKALALANSDSMYIENLEAVQKLQDLLHEALQDYELSQRHEEPRRAGKLLLTLPLLRQTAAKAVQHFYSVKLQGKVPMHKLFLEMLEAKV
Take B1: the degradation_or_half_life result in data set [1] is “decreases”. In addition, the “other: transcriptional activity” value in data set [2] (control: DMSO) is “decreases”.

B2: ESRRB: S25A (protein)
parent chain: B1 parent chain
In the case of B2, the degradation_or_half_life result in data set [3] and in data set [4] was “decreases” throughout. For the same protein, the “other: ubiquitination” value in data set [5] is “increases”. The “other: transcriptional activity” value in data set [2] (control: FLAG-ESRRB wild type) is listed as “decreases”.

These data come from paper PMC6731260.
